According to patent US20220348629A1 (EUREKA THERAPEUTICS, published 2022):
Changes are numbered by the printed parent chain.

B1: anti-AFP158/HLA-A*02:01 abTCR with IgG1 CH1 domain (other)
heavy: EVQLVQSGAEVKKPGESLTISCKASGYSFPNYWITWVRQMSGGGLEWMGRIDPGDSYTTYNPSFQGHVTISIDKSTNTAYLHWNSLKASDTAMYYCARYYVSLVDIWGQGTLVTVSSASTKGPSVFPLAPSSKSTSGGTAALGCLVKDYFPEPVTVSWNSGALTSGVHTFPAVLQSSGLYSLSSVVTVPSSSLGTQTYICNVNHKPSNTKVDKRVEPKSCEVKTDSTDHVKPKETENTKQPSKSCHKPKAIVHTEKVNMMSLTVLGLRMLFAKTVAVNFLLTAKLFFL
light: QSVLTQPASVSGSPGQSITISCTGTSSDVGGYNYVSWYQQHPGKAPKLMIYDVNNRPSEVSNRFSGSKSGNTASLTISGLQAEDEADYYCSSYTTGSRAVFGGGTKLTVLGQPKANPTVTLFPPSSEELQANKATLVCLISDFYPGAVTVAWKADGSPVKAGVETTKPSKQSNNKYAASSYLSLTPEQWKSHRSYSCQVTHEGSTVEKTVAPTECSPIKTDVITMDPKDNCSKDANDTLLLQLTNTSAYYMYLLLLLKSVVYFAIITCCLLRRTAFCCNGEKS
B2: anti-AFP158/HLA-A*02:01 abTCR with IgG4 CH1 domain (other)
heavy: B1 heavy with S131C, K133R, G137E, G138S, Q196K, I199T, N203D, P217S, S219Y, C220G
light: B1 light
B3: anti-AFP158/HLA-A*02:01-abTCR-3 (other)
chain 1: EVQLVQSGAEVKKPGESLTISCKASGYSFPNYWITWVRQMSGGGLEWMGRIDPGDSYTTYNPSFQGHVTISIDKSTNTAYLHWNSLKASDTAMYYCARYYVSLVDIWGQGTLVTVSSASTKGPSVFPLAPSSKSTSGGTAALGCLVKDYFPEPVTVSWNSGALTSGVHTFPAVLQSSGLYSLSSVVTVPSSSLGTQTYICNVNHKPSNTKVDKRVEPKSCESSCDVKLVEKSFETDTNLNFQNLSVIGFRILLLKVAGFNLLMTLRLWSSDYKDHDGDYKDHDIDYKDDDDK
chain 2: QSVLTQPASVSGSPGQSITISCTGTSSDVGGYNYVSWYQQHPGKAPKLMIYDVNNRPSEVSNRFSGSKSGNTASLTISGLQAEDEADYYCSSYTTGSRAVFGGGTKLTVLGQPKANPTVTLFPPSSEELQANKATLVCLISDFYPGAVTVAWKADGSPVKAGVETTKPSKQSNNKYAASSYLSLTPEQWKSHRSYSCQVTHEGSTVEKTVAPTECSADCGFTSVSYQQGVLSATILYEILLGKATLYAVLVSALVLMAMVKRKDFYPYDVPDYA
B4: anti-AFP158/HLA-A*02:01-abTCR-6MD (other)
chain 1: EVQLVQSGAEVKKPGESLTISCKASGYSFPNYWITWVRQMSGGGLEWMGRIDPGDSYTTYNPSFQGHVTISIDKSTNTAYLHWNSLKASDTAMYYCARYYVSLVDIWGQGTLVTVSSASTKGPSVFPLAPSSKSTSGGTAALGCLVKDYFPEPVTVSWNSGALTSGVHTFPAVLQSSGLYSLSSVVTVPSSSLGTQTYICNVNHKPSNTKVDKRVEPKSCEVKTDSTDHVKPKETENTKQPSKSCHKPKAIVHTEKVNMMSLTVLGLRMLFAKTVAVNFLLTAKLFFLYPYDVPDYA
chain 2: QSVLTQPASVSGSPGQSITISCTGTSSDVGGYNYVSWYQQHPGKAPKLMIYDVNNRPSEVSNRFSGSKSGNTASLTISGLQAEDEADYYCSSYTTGSRAVFGGGTKLTVLGQPKANPTVTLFPPSSEELQANKATLVCLISDFYPGAVTVAWKADGSPVKAGVETTKPSKQSNNKYAASSYLSLTPEQWKSHRSYSCQVTHEGSTVEKTVAPTECSPIKTDVITMDPKDNCSKDANDTLLLQLTNTSAYYMYLLLLLKSVVYFAIITCCLLRRTAFCCNGEKSDYKDHDGDYKDHDIDYKDDDDK
notes: also called anti-AFP158 abTCR
B5: anti-AFP158/HLA-A*02:01-abTCR-6 (other)
chain 1: EVQLVQSGAEVKKPGESLTISCKASGYSFPNYWITWVRQMSGGGLEWMGRIDPGDSYTTYNPSFQGHVTISIDKSTNTAYLHWNSLKASDTAMYYCARYYVSLVDIWGQGTLVTVSSASTKGPSVFPLAPSSKSTSGGTAALGCLVKDYFPEPVTVSWNSGALTSGVHTFPAVLQSSGLYSLSSVVTVPSSSLGTQTYICNVNHKPSNTKVDKRVEPKSCDHVKPKETENTKQPSKSCHKPKAIVHTEKVNMMSLTVLGLRMLFAKTVAVNFLLTAKLFFLYPYDVPDYA
chain 2: QSVLTQPASVSGSPGQSITISCTGTSSDVGGYNYVSWYQQHPGKAPKLMIYDVNNRPSEVSNRFSGSKSGNTASLTISGLQAEDEADYYCSSYTTGSRAVFGGGTKLTVLGQPKANPTVTLFPPSSEELQANKATLVCLISDFYPGAVTVAWKADGSPVKAGVETTKPSKQSNNKYAASSYLSLTPEQWKSHRSYSCQVTHEGSTVEKTVAPTECSMDPKDNCSKDANDTLLLQLTNTSAYYMYLLLLLKSVVYFAIITCCLLRRTAFCCNGEKSDYKDHDGDYKDHDIDYKDDDDK
B6: anti-AFP158/HLA-A*02:01-abTCR-4 (other)
chain 1: QSVLTQPASVSGSPGQSITISCTGTSSDVGGYNYVSWYQQHPGKAPKLMIYDVNNRPSEVSNRFSGSKSGNTASLTISGLQAEDEADYYCSSYTTGSRAVFGGGTKLTVLGQPKANPTVTLFPPSSEELQANKATLVCLISDFYPGAVTVAWKADGSPVKAGVETTKPSKQSNNKYAASSYLSLTPEQWKSHRSYSCQVTHEGSTVEKTVAPTECSESSCDVKLVEKSFETDTNLNFQNLSVIGFRILLLKVAGFNLLMTLRLWSSDYKDHDGDYKDHDIDYKDDDDK
chain 2: EVQLVQSGAEVKKPGESLTISCKASGYSFPNYWITWVRQMSGGGLEWMGRIDPGDSYTTYNPSFQGHVTISIDKSTNTAYLHWNSLKASDTAMYYCARYYVSLVDIWGQGTLVTVSSASTKGPSVFPLAPSSKSTSGGTAALGCLVKDYFPEPVTVSWNSGALTSGVHTFPAVLQSSGLYSLSSVVTVPSSSLGTQTYICNVNHKPSNTKVDKRVEPKSCADCGFTSVSYQQGVLSATILYEILLGKATLYAVLVSALVLMAMVKRKDFYPYDVPDYA
B7: anti-AFP158/HLA-A*02:01-abTCR-5 (other)
chain 1: QSVLTQPASVSGSPGQSITISCTGTSSDVGGYNYVSWYQQHPGKAPKLMIYDVNNRPSEVSNRFSGSKSGNTASLTISGLQAEDEADYYCSSYTTGSRAVFGGGTKLTVLGQPKANPTVTLFPPSSEELQANKATLVCLISDFYPGAVTVAWKADGSPVKAGVETTKPSKQSNNKYAASSYLSLTPEQWKSHRSYSCQVTHEGSTVEKTVAPTECSDHVKPKETENTKQPSKSCHKPKAIVHTEKVNMMSLTVLGLRMLFAKTVAVNFLLTAKLFFLYPYDVPDYA
chain 2: EVQLVQSGAEVKKPGESLTISCKASGYSFPNYWITWVRQMSGGGLEWMGRIDPGDSYTTYNPSFQGHVTISIDKSTNTAYLHWNSLKASDTAMYYCARYYVSLVDIWGQGTLVTVSSASTKGPSVFPLAPSSKSTSGGTAALGCLVKDYFPEPVTVSWNSGALTSGVHTFPAVLQSSGLYSLSSVVTVPSSSLGTQTYICNVNHKPSNTKVDKRVEPKSCMDPKDNCSKDANDTLLLQLTNTSAYYMYLLLLLKSVVYFAIITCCLLRRTAFCCNGEKSDYKDHDGDYKDHDIDYKDDDDK

Each binder was assayed against T1, PE-labeled AFP158/HLA-A*02:01 tetramer (human, biotinylated via the BSP peptide linked to the C-terminal end of the HLA-A*02:01 extracellular domain) (assay: flow cytometry, AFP158 tetramer binding on transduced T cells).
T1 construct: monomers single chain; also called AFP158 tetramer; AFP158/HLA-A*02:01 tetramers; not shown: BSP peptide (BirA biotinylation site) at the C-terminus
Experimental: Primary human T-cells were used for transduction after one-day stimulation with CD3/CD28 beads (Dynabeads®, Invitrogen) in the presence of interleukin-2 (IL-2) at 100 U/ml. Concentrated lentiviruses were applied to T-cells in Retronectin-(Takara) coated 6-well plates for 96 hours. Transduction efficiencies of the anti-AFP and anti-CD19 chimeric constructs were assessed by flow cytometry, using biotinylated AFP158/HLA-A*02:01 tetramer (“AFP158 tetramer”) with PE-conjugated streptavidin or anti-myc antibody respectively. Repeat flow cytometry analyses were done on day 5 and every 3-4 days thereafter.
Specific lysis was measured after 16 hr incubation using the Cytox 96 Non-radioactive Cytotoxicity Assay (Promega).

Row | Binder | AFP 158 tetramer+ (percent)
1 | B1 | 64.5 percent
2 | B2 | 22.2 percent

The binders below were run against T1, PE-labeled AFP158/HLA-A*02:01 tetramer (assay: flow cytometry; Jurkat cells transduced with the construct, stained with PE-labelled AFP158/HLA-A*02:01 tetramer).

Row | Binder | % of cells in gate high | % of cells in gate low | % of cells in gate negative
3 | B3 | 3.7% | 56.2% | 40.2%
4 | B4 | 19% | 9.54% | 71.5%
5 | B5 | 6.17% | 4.36% | 89.5%
6 | B6 | 0.574% | 12.3% | 87.1%
7 | B7 | 7.64% | 3.7% | 88.7%

Each binder was assayed against T1, PE-labeled AFP158/HLA-A*02:01 tetramer (assay: flow cytometry; J.RT3-T3.5 cells transduced with the construct, stained with PE-labelled AFP158/HLA-A*02:01 tetramer).

Row | Binder | % of cells in gate high | % of cells in gate negative | % of cells in gate low
8 | B3 | 5.68% | 19.5% | 
9 | B4 | 24.2% | 63.4% | 13.8%
10 | B5 | 8% | 87.2% | 5.35%
11 | B6 | 0.928% | 80.1% | 19.1%
12 | B7 | 9.41% | 86.1% | 4.98%
